Each block holds one binder with its values, some of them ahead of it.
Legend:
human TSLP-His [1] = target: T1, human TSLP-His (human, UniProt Q969D9 29-159); assay: cell-based or functional assay
human TSLP-His [2] = target: T1, human TSLP-His; assay: ELISA, human TSLP-His coated, antibody titrated, anti-rat Fc-HRP
[3] = target: T2, monkey TSLP-His (cynomolgus monkey, Macaca fascicularis) (cynomolgus monkey (Macaca fascicularis), UniProt A0A7N9CAT7 29-159); assay: ELISA, monkey TSLP-His coated, antibody titrated, anti-rat Fc-HRP
T2 construct: Whole entry XP_005557555.1 is named; also called cTSLP
T2 sequence: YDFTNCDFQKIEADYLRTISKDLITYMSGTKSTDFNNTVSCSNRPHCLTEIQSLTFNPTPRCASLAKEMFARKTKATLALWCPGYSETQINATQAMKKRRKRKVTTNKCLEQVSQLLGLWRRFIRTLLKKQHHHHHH

human TSLP-His [4] = target: T1, human TSLP-His; assay: ELISA, human TSLP-His coated at 1 µg/mL, hybridoma supernatant, anti-rat IgG-HRP
[5] = target: T2, monkey TSLP-His (cynomolgus monkey, …); assay: ELISA, monkey TSLP-His coated at 1 µg/mL, hybridoma supernatant, anti-rat IgG-HRP
human TSLP-His [6] = target: T1, human TSLP-His; assay: competitive ELISA, hIL7Rα-hTSLPR-hFc coated, hTSLP-His plus titrated antibody, anti-His-HRP
human TSLP-His [7] = target: T1, human TSLP-His; assay: competitive ELISA, hIL7Rα-hTSLPR-hFc coated, hTSLP-His plus hybridoma supernatant, anti-His-HRP
human TSLP-His [8] = target: T1, human TSLP-His; assay: cell-based or functional assay; remark: listed apart in the source
human TSLP-His [9] = target: T1, human TSLP-His; assay: ELISA, human TSLP-His coated, antibody titrated, anti-human Fc-HRP
[10] = target: T2, monkey TSLP-His (cynomolgus monkey, …); assay: ELISA, monkey TSLP-His coated, antibody titrated, anti-human Fc-HRP
human TSLP-His [11] = target: T1, human TSLP-His; assay: BLI (Fortebio), antibody on ProA sensor, human TSLP 1.5625-100 nM, 1:1 model
[12] = target: T2, monkey TSLP-His (cynomolgus monkey, …); assay: BLI (Fortebio), antibody on ProA sensor, monkey TSLP 1.5625-100 nM, 1:1 model
human TSLP-His [13] = target: T1, human TSLP-His; assay: cell-based or functional assay; remark: listed apart in the source

EC50, blocking human TSLP-induced proliferation of Ba/F3-hTSLPR-hIL7Rα cells (CCK8) (human TSLP-His [1]): 280 pM | EC50 (human TSLP-His [2]): 300 pM | EC50 [3]: 495 pM | hTSLP binding (OD450) (human TSLP-His [4]): 1.1 OD450 | cTSLP binding (OD450) [5]: 1.12 OD450 | IC50 (human TSLP-His [6]): 510 pM | hTSLP/hIL7Rα-hTSLPR-hFc inhibition rate (%) (human TSLP-His [7]): 81%
B1: chimeric antibody 37C2D10 (antibody, V domains shown)
VH: QVQLQESGPGLVKPSGTLSLTCAVSGDSISSDNWWNWVRQPPGKGLQWIGEIFHSGRTNYNPSLKSRVTISVDMSKNQFSLKLSSVTAADTAVYFCARDAPNDYGDYGFFDYWGQGILVTVSS
VL: DIVMTQSPLSLPVTPGEPASISCRSSQSLLHSNEYNYLDWYLQKPGQSPQLLIYLGSDRASGVPDRFSGSGSGTDFTLKISRVEAEDVGIYYCMQALQTPYTFGQGTKLEIK
notes: Fully human variable regions with rat constant region (rat Fc)

hTSLP EC50, inhibition of the proliferation of Ba/F3-hTSLPR-hIL7Rα cells (human TSLP-His [8]): 60 pM | EC50 (human TSLP-His [9]): 900 pM | EC50 [10]: 170 pM | Kd (human TSLP-His [11]): 1760 pM | Kd [12]: 20100 pM
B2: recombinant fully human antibody 37C2D10-hIgG (antibody, V domains shown)
VH: B1 VH
VL: DIVMTQSPLSLPVTPGEPASISCRSSQSLLHSNEYNYLDWYLQKPGQSPQLLIYLGSDRASGVPDRFSGSGSGTDFTLKISRVEAEDVGIYYCMQALQTPYTFGQGTKLEIKR

hTSLP EC50, inhibition of the proliferation of Ba/F3-hTSLPR-hIL7Rα cells (human TSLP-His [8]): 50 pM | EC50, inhibition of human TSLP-induced PBMC secretion of TARC (human TSLP-His [13]): 420 pM | EC50 (human TSLP-His [9]): 1360 pM | Kd (human TSLP-His [11]): 604 pM
B3: recombinant fully human antibody 90H3H11-hIgG (antibody, V domains shown)
VH: QVQLVESGGGVVQPGRSLRLSCAASGFTISNHDIHWVRQAPGKGLEWVTLIWYDGSNQYYADSVKGRFTISRDNSKNTVYLQMNSLRAEDTAVYYCARDDYADYVYFHHWGQGTLVTVSS
VL: DIQMTQSPSSLSASVGDRVTITCRASQNINSYLNWYRQKPGKAPELLIYAASSLQSGVPSRFSGSGSGTDFTLTISSLQPEDFATYYCQQSYSTPYTFGQGTELEIKR

EC50, blocking human TSLP-induced proliferation of Ba/F3-hTSLPR-hIL7Rα cells (CCK8) (human TSLP-His [1]): 250 pM | EC50 (human TSLP-His [2]): 139 pM | hTSLP binding (OD450) (human TSLP-His [4]): 0.7 OD450 | IC50 (human TSLP-His [6]): 1650 pM | hTSLP/hIL7Rα-hTSLPR-hFc inhibition rate (%) (human TSLP-His [7]): 87%
B4: chimeric antibody 90H3H11 (antibody, V domains shown)
VH: B3 VH
VL: DIQMTQSPSSLSASVGDRVTITCRASQNINSYLNWYRQKPGKAPELLIYAASSLQSGVPSRFSGSGSGTDFTLTISSLQPEDFATYYCQQSYSTPYTFGQGTELEIK
notes: as for B1

EC50, blocking human TSLP-induced proliferation of Ba/F3-hTSLPR-hIL7Rα cells (CCK8) (human TSLP-His [1]): 1220 pM | EC50 (human TSLP-His [2]): 221 pM | EC50 [3]: 216 pM | hTSLP binding (OD450) (human TSLP-His [4]): 1.4 OD450 | cTSLP binding (OD450) [5]: 1.11 OD450 | IC50 (human TSLP-His [6]): 770 pM | hTSLP/hIL7Rα-hTSLPR-hFc inhibition rate (%) (human TSLP-His [7]): 69.8%
B5: chimeric antibody 27C2B6 (antibody, V domains shown)
VH: QVQLQESGPGLVKPSGTLSLTCAVSGDSISNYNWWSWVRQPPGKGLEWIGEIYHSGRTNYNPSLKSRVTLSVDTSKNQFSLRLSSVTAADTAVYYCARDAPSDYGDYGFFDHWGQGTLVIVSS
VL: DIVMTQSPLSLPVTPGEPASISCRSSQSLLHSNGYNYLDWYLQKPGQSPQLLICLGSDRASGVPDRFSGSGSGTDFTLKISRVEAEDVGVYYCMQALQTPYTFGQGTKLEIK
notes: as for B1

hTSLP EC50, inhibition of the proliferation of Ba/F3-hTSLPR-hIL7Rα cells (human TSLP-His [8]): 64 pM | EC50 (human TSLP-His [9]): 1620 pM | EC50 [10]: 180 pM
B6: recombinant fully human antibody 27C2B6-hIgG (antibody, V domains shown)
VH: B5 VH
VL: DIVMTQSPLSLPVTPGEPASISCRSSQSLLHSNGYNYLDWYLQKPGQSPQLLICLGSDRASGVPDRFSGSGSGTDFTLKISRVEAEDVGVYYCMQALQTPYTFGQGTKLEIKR

EC50, blocking human TSLP-induced proliferation of Ba/F3-hTSLPR-hIL7Rα cells (CCK8) (human TSLP-His [1]): 110 pM | EC50 (human TSLP-His [2]): 208 pM | hTSLP binding (OD450) (human TSLP-His [4]): 2.4 OD450 | IC50 (human TSLP-His [6]): 890 pM | hTSLP/hIL7Rα-hTSLPR-hFc inhibition rate (%) (human TSLP-His [7]): 95.9%
B7: chimeric antibody 25A5C5 (antibody, V domains shown)
VH: EVQLVESGGGLVQPGGSLRLSCAASRFTFSRYWMNWVRQAPGKGLEWVANIKQDGNEKYYVDSVKGRFTISRDNAKNSLYLQMNSLRAEDTAVYYCARDRVVGAPDTFDIWGQGTMVTVSS
VL: not shown
notes: From hybridoma of H2L2 mice: fully human variable regions with rat constant region (rat Fc)

hTSLP EC50, inhibition of the proliferation of Ba/F3-hTSLPR-hIL7Rα cells (human TSLP-His [8]): 44 pM | EC50 (human TSLP-His [9]): 1450 pM | binding result [10]: no binding | Kd (human TSLP-His [11]): 558 pM
B8: recombinant fully human antibody 25A5C5-hIgG (antibody, V domains shown)
VH: B7 VH
VL: not shown

EC50, blocking human TSLP-induced proliferation of Ba/F3-hTSLPR-hIL7Rα cells (CCK8) (human TSLP-His [1]): 100 pM | EC50 (human TSLP-His [2]): 115 pM | EC50 [3]: 568 pM | hTSLP binding (OD450) (human TSLP-His [4]): 1.92 OD450 | cTSLP binding (OD450) [5]: 1.11 OD450 | IC50 (human TSLP-His [6]): 1330 pM | hTSLP/hIL7Rα-hTSLPR-hFc inhibition rate (%) (human TSLP-His [7]): 80.7%
B9: chimeric antibody 43B1A8 (antibody, V domains shown)
VH: QMQLVESGGGAVQPGRSLRLSCAASGFTFRSYDMHWVRQAPGKGLEWVAVIWYDGSNENYADSVKGRFTTSRDNSKNTLFLQMNSLRAEDTAVYYCARSPLWYGEPDDAFDIWGQGTLVTVSS
VL: EIVMTQSPATLSVSPGERATLSCRASQSVSSNLAWYQQKPGQAPRLLISGASTRATGIPARFSGSGSGTDFTLTISSLRSEDFAVYYCQHYNNWPLTFGGGTKVEIK
notes: as for B1

From patent publication US20220363781A1 (SICHUAN KELUN BIOTECH BIOPHARMACEUTICAL, published 2022)
